We go through 5 molecules from patent US20120207771A1 (MORPHOTEK, published 2012).

The target of test [1] is T1, folate receptor alpha (FRα), human (human, UniProt P15328 25-234).
T1 construct: also called FR-alpha; FOLR-1
Kind of test: sandwich EIA, biotin-labeled detector MORAb-003, capture MOV18, row '1-S' (label not explained).

The target of test [2] is T1, folate receptor alpha (FRα), human. Description: sandwich ECLIA on serum, 26B3 as capture (Pair 2). Here is the method: (§1) FRα levels in the serum of patients with ovarian cancer, patients with lung cancer, and normal controls were assessed. Serum FRα levels were assessed using ECLIA with two different pairs of capture-detector antibodies: Pair 1, in which 9F3 was the capture antibody and 24F12 was the detector antibody, and Pair 2, in which 26B3 was the capture antibody and 19D4 was the detector antibody.
(§2) The FRα pairs were tested with full calibrator curves and 196 individual serums diluted 1:4. In one experiment, 26B3 was used as the capture antibody after CR processing on a plate lot (75 μg/mL, +B, +T) and 19D4 was used as the detector antibody at 1.0 μg/mL. In another experiment, 9F3 was used as the capture antibody and 24F12 was used as the detector antibody at 1.0 μg/mL. Each were CR processed (lot 10070) with an label to protein ratio (L/P) of 13.3. Diluent 100 (Meso Scale Discovery, Gaithersburg, Md.)+human anti-mouse antibody (HAMA)+mIgG was used for samples and calibrator. Diluent 3 (Meso Scale Discovery, Gaithersburg, Md.) was used for detections.
(§3) The following protocol was employed for the ECLIA. Samples were added at 50 μL/well. The samples were shaken for 2 hours and subsequently washed with Phosphate Buffered Saline (PBS) solution with the detergent Tween 20 (PBST). […] Finally, the electrochemiluminescence (ECL) emission of the samples was read with 2×MSD® Buffer T.

For test [3] the target is unchanged. Kind of test: sandwich ECLIA on serum, 19D4 as detector (Pair 2). As for the experimental part:
as §1, §2, §3

Test [4] has the same target. Kind of test: sandwich ECLIA on serum, 24F12 as detector (Pair 1). Here is the method: as §1, §2, §3
For test [5] the target is unchanged. Kind of test: sandwich ECLIA on serum, 9F3 as capture (Pair 1). Here is the method: as §1, §2, §3

T1 sequence (P15328 25-234 limits assumed): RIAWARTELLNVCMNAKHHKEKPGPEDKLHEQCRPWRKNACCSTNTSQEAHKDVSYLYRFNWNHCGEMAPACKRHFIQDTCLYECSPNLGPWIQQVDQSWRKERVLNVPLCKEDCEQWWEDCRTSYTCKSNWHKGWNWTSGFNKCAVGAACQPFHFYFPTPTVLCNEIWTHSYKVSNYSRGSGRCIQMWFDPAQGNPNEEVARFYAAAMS

B1: MORAb-003 antibody (antibody, human IgG1, kappa, V domains shown)
VH: EVQLVESGGGVVQPGRSLRLSCSASGFTFSGYGLSWVRQAPGKGLEWVAMISSGGSYTYYADSVKGRFAISRDNAKNTLFLQMDSLRPEDTGVYFCARHGDDPAWFAYWGQGTPVTVSS
VL: DIQLTQSPSSLSASVGDRVTITCSVSSSISSNNLHWYQQKPGKAPKPWIYGTSNLASGVPSRFSGSGSGTDYTFTISSLQPEDIATYYCQQWSSYPYMYTFGQGTKVEIKR
notes: Used labeled with ruthenium chelate (ECLIA) or biotin (EIA) as detector, or unlabeled as capture antibody
As to B1, the binding result in test [1] is “binds”.

B2: 26B3.F2 antibody (antibody, mouse IgG1, V domains shown)
VH: GPELVKPGASVKISCKASDYSFTGYFMNWVMQSHGKSLEWIGRIFPYNGDTFYNQKFKGRATLTVDKSSSTAHMELRSLASEDSAVYFCARGTHYFDYWGQGTTLTVSS
VL: PASLSASVGETVTITCRTSENIFSYLAWYQQKQGISPQLLVYNAKTLAEGVPSRFSGSGSGTQFSLKINSLQPEDFGSYYCQHHYAFPWTFGGGSKLEIKR
notes: ATCC PTA-11885
As for B2, the binding result in test [2] is listed as “binds”.

B3: 19D4.B7 antibody (antibody, mouse IgG2a, V domains shown)
VH: GAELVKPGASVKLSCTASGFNIKHPYMHWVKQRPDQGLEWIGRIDPANGNTKYDPKFQGKATITADTSSNTAYLQLSSLTSEDTAVYYCGREEVADYTMDYWGQGTSVTVSS
VL: PASLAVSLGQRATISCRASESVDTYGNNFIHWYQQKPGQPPKLLIYLASNLESGVPARFSGSGSRTDFTLTIDPVEADDAATYYCQQNNGDPWTFGGGTKLEIKR
notes: ATCC PTA-11884
For the molecule B3, the binding result in test [3] is “binds”.

B4: 24F12.B1 antibody (antibody, mouse IgG1, V domains shown)
VH: SGGGLVRPGGSLKLSCAASGFTFSSYAMSWVRQSPEKRLEWVAEIGSGGSYTYYPDTVTGRFTISRDNAKSTLYLEMSSLRSEDTAIYYCARETTAGYFDYWGQGTTLTVSS
VL: TSSLSASLGDRVTISCSASQGINNFLNWYQQKPDGTVKLLIYYTSSLHSGVPSRFSGSGSGTDYSLTISNLEPEDIAIYYCQHFSKLPWTFGGGTKLEIKR
notes: ATCC PTA-11886
Consider B4, for which the binding result in test [4] is reported as “binds”.

B5: 9F3.H9.H3.H3.B5.G2 antibody (antibody, mouse IgG2a, V domains shown)
VH: ESGPGLVRPSQSLSLTCSVTGYSITSGYYWNWIRQFPGSRLEWMGYIKSDGSNNYNPSLKNRISITRDTSKNQFFLKLNSVTTEDTATYFCTREWKAMDYWGQGTSVTVSS
VL: PAIMSASPGEKVTMTCRASSTVSYSYLHWYQQKSGASPQLWIYGTSNLASGVPARFSGSGSGTSYSLTISSVEAEDAATYYCQQYSGYPLTFGAGTKLELKR
notes: ATCC PTA-11887
As for B5, the binding result in test [5] is “binds”.
